Reference: article PMC11441981

T1: Prat, Q27601
T1 chain: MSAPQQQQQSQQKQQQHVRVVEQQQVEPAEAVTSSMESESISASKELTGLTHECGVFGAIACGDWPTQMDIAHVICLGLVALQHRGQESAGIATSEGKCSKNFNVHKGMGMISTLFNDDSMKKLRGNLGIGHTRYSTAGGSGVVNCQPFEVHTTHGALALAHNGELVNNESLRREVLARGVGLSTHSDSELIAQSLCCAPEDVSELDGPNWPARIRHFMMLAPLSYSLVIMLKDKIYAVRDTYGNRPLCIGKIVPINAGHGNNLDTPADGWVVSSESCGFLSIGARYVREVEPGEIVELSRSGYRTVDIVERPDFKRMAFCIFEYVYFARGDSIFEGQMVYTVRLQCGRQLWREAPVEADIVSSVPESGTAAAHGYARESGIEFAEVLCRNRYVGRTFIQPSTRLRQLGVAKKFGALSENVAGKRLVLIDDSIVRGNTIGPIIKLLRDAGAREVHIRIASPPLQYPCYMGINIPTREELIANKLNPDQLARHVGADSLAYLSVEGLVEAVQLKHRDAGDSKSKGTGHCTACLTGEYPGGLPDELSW


Experiments:
Test in all cases: GST pull-down from S2 cell lysate with mass spectrometry (volcano plot of spectral intensities)
Ostδ = details: three biological replicates, read off a plot
γCOP = details: three biological replicates, read off a plot
εCOP = details: three biological replicates, read off a plot
Arf79F = details: three biological replicates, read off a plot
CG33303 = details: three biological replicates, read off a plot
Ostγ = details: three biological replicates, read off a plot
Prat, Q27601 = biological target: T1, Prat, Q27601; details: chain shown with the change, three biological replicates, read off a plot

Row | other: Difference Log2(CG9590-GST, Wild-type vs W24,27A mutant) (Ostδ) [log2] | other: Difference Log2(CG9590-GST, Wild-type vs W24,27A mutant) (γCOP) [log2] | other: Difference Log2(CG9590-GST, Wild-type vs W24,27A mutant) (εCOP) [log2] | other: Difference Log2(CG9590-GST, Wild-type vs W24,27A mutant) (Arf79F) [log2] | other: Difference Log2(CG9590-GST, Wild-type vs W24,27A mutant) (CG33303) [log2] | other: Difference Log2(CG9590-GST, Wild-type vs W24,27A mutant) (Ostγ) [log2] | other: Difference Log2(CG9590-GST, Wild-type vs W24,27A mutant) (Prat, Q27601) [log2] | Molecule
1 | 1.7 | 6.3 | 5.5 | 1.4 | 2.5 | 1.1 |  | GST-tagged CG9590 (Drosophila FAM114A) (from UniProt Q9VF39) W24A; W27A
2 |  |  |  |  |  |  | 9.8 | GST-tagged CG9590 (Drosophila FAM114A), Q9VF39 W24A; W27A (protein) MAKNPKKEEDGGNDWAQSDEDDNADDAGDDDDKFVHVEKEQQPQEKVSSRNDAKGTAENQEKLETPRISAPATASATSSSWGLWGGKLSSVLTTATEGLGTITTQVNQGLNQIIGVPDPEELARINVAEKAEKAAKAPPEENVDDEKESSAAFGLDFVTNLGSKVLNTGLDTLEGIGKKTMTILQDNDPKLMNKRKLLGLEANSPNLSAVLLEAKKEADQMEQSLQQLQLKRQKAQLRFEILFENYCGLVHFEALEILSKESRLKLDTLLDAVSGNARAELQETINEVKELIELEDLDVESEGDYEAEELSERLAATIKDAELGIQFDDIANHWTQSLSWLTSEEATAADLEQAYAKSIHALSEACALEMCKLHKIAELLLVKPHHSTANEVDGVVNLCQQFNGHLQGLSHRFAAVLSGKSETEESKGRVSTFFSEMLSAVQFIEKAYKLFTPILQMGAV
